{"source": "paper PMC2948610", "assay_in_all_cases": "thioflavin T fluorescence", "key": {"[1]": {"target": "MSP2_(1–25), recombinant 25-residue peptide corresponding to the entire conserved N-terminal domain of mature MSP2 (Plasmodium falciparum)"}, "[2]": {"target": "[F11A,I12A]MSP2_(1–25) (Plasmodium falciparum)"}, "[3]": {"target": "[Y7A,Y16A]MSP2_(1–25) (Plasmodium falciparum)"}}}
{"substance": "MSP2_(1–25), recombinant 25-residue peptide corresponding to the entire conserved N-terminal domain of mature MSP2", "values": [{"measurement": "lag time of fibril formation", "setting": "[1]", "value": 1, "unit": "h"}, {"measurement": "time to maximum ThT fluorescence (fibril formation)", "setting": "[1]", "value": 2, "unit": "h"}]}
{"substance": "[F11A,I12A]MSP2_(1–25) (peptide)", "values": [{"measurement": "lag time of fibril formation", "setting": "[2]", "value": 3.5, "unit": "h"}, {"measurement": "time to maximum ThT fluorescence (fibril formation)", "setting": "[2]", "value": 9, "unit": "h"}]}
{"substance": "[Y7A,Y16A]MSP2_(1–25) (peptide)", "values": [{"measurement": "lag time of fibril formation", "setting": "[3]", "value": 1, "unit": "h"}, {"measurement": "time to maximum ThT fluorescence (fibril formation)", "setting": "[3]", "value": 2, "unit": "h"}]}
